These results are taken from paper PMC12815460, “A high-resolution analysis of arrestin2 interactions responsible for CCR5 endocytosis” (eLife, 2026).

For one test, the target named is AP2β2 (Homo sapiens) (UniProt P63010). As to the kind of experiment: EPR. The note with it: cited from earlier work.
In test [1] the target is arrestin2^1-418 (full-length human arrestin2) (human) (UniProt P49407).
Test [2] deals with CCR5pp3 phosphopeptide C-terminal phosphopeptide (Homo sapiens) (UniProt P51681). The note with it: cited from earlier work.
Test [3] concerns the target T1, clathrin-N (clathrin heavy chain 1 N-terminal domain, residues 1–364) (UniProt Q00610 1-364).
T1 construct: the construct used here is 1–364; Tag removed with 3C protease; pETM33 may add GST besides the His tag (surmise); Used 15N,2H-labelled or unlabelled; also called clathrin heavy chain N-terminal domain; CLTC Clathrin propeller; source: E. coli BL21 (DE3), purified (Ni-NTA, reverse IMAC, gel filtration)
T1 sequence (looked up): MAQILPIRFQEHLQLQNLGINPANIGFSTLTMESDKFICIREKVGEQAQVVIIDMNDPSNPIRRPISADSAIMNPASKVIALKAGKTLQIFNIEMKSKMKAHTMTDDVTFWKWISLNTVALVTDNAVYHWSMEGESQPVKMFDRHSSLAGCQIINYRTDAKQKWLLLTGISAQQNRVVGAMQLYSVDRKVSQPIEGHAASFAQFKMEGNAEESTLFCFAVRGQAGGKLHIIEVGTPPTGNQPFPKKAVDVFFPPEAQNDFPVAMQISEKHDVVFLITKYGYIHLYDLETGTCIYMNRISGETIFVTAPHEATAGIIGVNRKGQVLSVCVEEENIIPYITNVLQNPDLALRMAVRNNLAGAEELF
The test is described as follows: NMR titration; 50 μM 15N,2H-labelled clathrin-N observed (1H-15N HSQC-TROSY, 900 MHz), unlabelled arrestin2 construct added up to equimolar, no phosphopeptide; 20 mM HEPES, 150 mM NaCl, pH 7.4, 303 K. The note with it: both partners purified.

The target in test [4] is T1, clathrin-N (clathrin heavy chain 1 …). The test is described as follows: NMR titration; 50 μM Ile-δ1-13CH3,2H-labelled arrestin2^1-393 observed (1H-13C HMQC), unlabelled clathrin-N up to 600 μM; I377 13C shifts fitted with a 1:1 isotherm; apparent; 20 mM HEPES, 150 mM NaCl, pH 7.4, 303 K. The note with it: both partners purified.
The target in a further test is T2, AP2β2 (Homo sapiens, UniProt P63010).
T2 chain: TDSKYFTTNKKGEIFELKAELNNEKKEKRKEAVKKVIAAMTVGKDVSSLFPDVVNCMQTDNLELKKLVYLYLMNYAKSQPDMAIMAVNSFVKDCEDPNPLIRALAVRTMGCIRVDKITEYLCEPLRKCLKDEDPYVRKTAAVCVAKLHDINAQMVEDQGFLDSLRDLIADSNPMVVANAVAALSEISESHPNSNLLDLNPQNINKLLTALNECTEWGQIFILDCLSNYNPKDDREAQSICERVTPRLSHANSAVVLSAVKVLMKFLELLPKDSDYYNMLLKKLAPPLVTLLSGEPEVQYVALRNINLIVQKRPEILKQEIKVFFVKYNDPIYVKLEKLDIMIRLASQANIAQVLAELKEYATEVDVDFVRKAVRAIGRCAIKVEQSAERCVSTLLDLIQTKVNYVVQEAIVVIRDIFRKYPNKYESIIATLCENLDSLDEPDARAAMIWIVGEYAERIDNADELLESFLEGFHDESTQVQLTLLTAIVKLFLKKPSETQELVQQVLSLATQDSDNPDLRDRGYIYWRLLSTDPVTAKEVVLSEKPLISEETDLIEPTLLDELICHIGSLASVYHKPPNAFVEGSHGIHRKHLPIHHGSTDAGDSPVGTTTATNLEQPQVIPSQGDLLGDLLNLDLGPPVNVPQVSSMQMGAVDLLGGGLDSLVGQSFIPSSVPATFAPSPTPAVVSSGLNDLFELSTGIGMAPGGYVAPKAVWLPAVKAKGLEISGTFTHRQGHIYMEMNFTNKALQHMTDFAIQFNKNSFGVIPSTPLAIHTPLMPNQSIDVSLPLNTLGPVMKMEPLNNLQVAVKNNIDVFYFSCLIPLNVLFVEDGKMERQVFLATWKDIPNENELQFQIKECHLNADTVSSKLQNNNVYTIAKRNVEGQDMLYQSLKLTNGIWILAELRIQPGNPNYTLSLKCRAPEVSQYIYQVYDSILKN
The test is described as follows: SEC.

Sequence of CCR5pp3 phosphopeptide C-terminal phosphopeptide (Homo sapiens) (P51681 332-352): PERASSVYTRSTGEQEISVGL

“arrestin β20 peptide 383-402 (from UniProt P49407)”: the Kd with AP2β2 (Homo sapiens) is 9 µM.
Take “AP2β2^701-937 (C-terminal domain of the β2 subunit of the AP2 complex, residues 701–937) (from UniProt P63010 701-937) (domain or fragment)”: in test [1], the protection of CCR5pp6-activated arrestin2^1-418 from trypsin: proteolysis midpoint at 1-, 2- and 5-molar equivalents of AP2β2^701-937 (10 to 30 min) was 30 min.
Take arrestin2 (from UniProt P49407): the Kd in test [2] is 200 µM.

B1: arrestin2^1-393 (truncated human arrestin2, residues 1–393) (domain or fragment)
chain: MGDKGTRVFKKASPNGKLTVYLGKRDFVDHIDLVDPVDGVVLVDPEYLKERRVYVTLTCAFRYGREDLDVLGLTFRKDLFVANVQSFPPAPEDKKPLTRLQERLIKKLGEHAYPFTFEIPPNLPCSVTLQPGPEDTGKACGVDYEVKAFLAENLEEKIHKRNSVRLVIRKVQYAPERPGPQPTAETTRQFLMSDKPLHLEASLDKEIYYHGEPISVNVHVTNNTNKTVKKIKISVRQYADIVLFNTAQYKVPVAMEEADDTVAPSSTFSKVYTLTPFLANNREKRGLALDGKLKHEDTNLASSTLLREGANREILGIIVSYKVKVKLVVSRGGLLGDLASSDVAVELPFTLMHPKPKEEPPHREVPENETPVDTNLIELDTNDDDIVFEDFAR
modifications: Cys replacements inferred from the printed arrestin2-ΔCBL sequence (L150, V242, V251, S269), assumed to share the parent construct of Isaikina et al. 2023; not stated in this text for 1-393. Isotope …
On to B1, for which the “stoichiometry N” value in test [3] was found to be 1. In test [4], the Kd was 104 ± 9 µM.

B2: arrestin2 (protein)
chain: MGDKGTRVFKKASPNGKLTVYLGKRDFVDHIDLVDPVDGVVLVDPEYLKERRVYVTLTCAFRYGREDLDVLGLTFRKDLFVANVQSFPPAPEDKKPLTRLQERLIKKLGEHAYPFTFEIPPNLPCSVTLQPGPEDTGKACGVDYEVKAFCAENLEEKIHKRNSVRLVIRKVQYAPERPGPQPTAETTRQFLMSDKPLHLEASLDKEIYYHGEPISVNVHVTNNTNKTVKKIKISVRQYADICLFNTAQYKCPVAMEEADDTVAPSSTFCKVYTLTPFLANNREKRGLALDGKLKHEDTNLASSTLLREGANREILGIIVSYKVKVKLVVSRGGLLGDLASSDVAVELPFTLMHPKPKEEPPHREVPENETPVDTNLIELDTNDDDIVFEDFARQRLKGMKDDKEEEEDGTGSPQLNNR
modifications: CCR5pp4 phosphopeptide
Turning to B2, the Kd in the test with AP2β2 was found to be 44 µM.

B3: arrestin2 (protein)
chain: B2 chain
modifications: CCR5pp6 phosphopeptide
Molecule B3 returned a Kd with AP2β2 of 9 µM.

B4: arrestin2 (protein)
chain: B2 chain
modifications: CCR5pp3 phosphopeptide
For B4, in the test with AP2β2, the Kd was found to be 40 µM.
